Substitutions are numbered along the chain they refer to.
Columns and labels:
[1] = molecular target: T1, recombinant human Siglec-15 protein (Homo sapiens, UniProt Q6ZMC9); assay: BIACORE surface plasmon resonance binding affinity; conditions: SPR; antibody as ligand, human Siglec-15 as analyte; 1:1 Langmuir model
T1 construct: purchased Bonopusbio CW70-50 ug
T1 sequence (Q6ZMC9 20-263 limits assumed): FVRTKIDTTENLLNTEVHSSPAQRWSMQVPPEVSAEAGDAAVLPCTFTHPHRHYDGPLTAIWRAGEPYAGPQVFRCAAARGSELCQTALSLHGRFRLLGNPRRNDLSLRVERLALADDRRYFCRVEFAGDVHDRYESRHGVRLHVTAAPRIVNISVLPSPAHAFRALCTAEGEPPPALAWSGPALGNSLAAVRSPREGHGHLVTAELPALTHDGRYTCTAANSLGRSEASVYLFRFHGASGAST
Source text: Binding affinity determination of anti-Siglec-15 monoclonal antibodies using BIACORE surface plasmon resonance: The purified anti-Siglec-15 monoclonal antibodies (mAbs) were characterized for binding affinity and binding kinetics by Biacore T200 system (GE healthcare, Pittsburgh, PA, USA). Anti-Siglec-15 antibodies were covalently linked to a CM5 chip (carboxy methyl dextran coated chip, GE healthcare, Cat #BR-1005-30) via primary amines, using a standard amine coupling kit provided by Biacore (GE healthcare, Pittsburgh, PA, USA). Un-reacted moieties on the biosensor surface were blocked with ethanolamine. Then, serially diluted recombinant human Siglec-15-his protein (Bonopusbio, CW70-50 ug), 2-fold serial dilution in HBS-EP buffer starting at 80 nM, were respectively flown onto the chip at a flow rate of […]. The antigen-antibody association kinetics was followed for 2 minutes, and the dissociation kinetics was followed for 10 minutes. The association and dissociation curves were fit to a 1:1 Langmuir binding model using BIAcore evaluation software. The dissociation rate (kd) and association constant (ka) rate constants were obtained using Evaluation Software. The equilibrium dissociation constant (KD) was calculated from the ratio of kd over ka.

human Siglec-15 = molecular target: T2, human Siglec-15 (Homo sapiens, UniProt Q6ZMC9); assay: Blocking of human Siglec-15 binding to Jurkat cells (flow cytometry); conditions: flow cytometry (FIG. 22)
T2 construct: expressed in transfected cells
T2 sequence (Q6ZMC9 20-328): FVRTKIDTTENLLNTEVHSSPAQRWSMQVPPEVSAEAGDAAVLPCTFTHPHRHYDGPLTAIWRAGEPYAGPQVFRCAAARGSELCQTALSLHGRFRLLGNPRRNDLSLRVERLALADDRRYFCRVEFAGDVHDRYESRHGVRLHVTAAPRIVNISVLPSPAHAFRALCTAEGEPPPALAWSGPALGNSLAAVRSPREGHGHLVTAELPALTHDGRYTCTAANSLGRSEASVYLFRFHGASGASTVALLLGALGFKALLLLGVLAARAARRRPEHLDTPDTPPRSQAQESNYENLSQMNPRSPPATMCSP
Method: Blocking assay (Flow cytometry): Briefly, the anti-Siglec-15 antibodies of the disclosure or controls were diluted with human Siglec-15-human Fc protein (Sinobiologicals, 13976-H02H1), at 66.67 nM, and incubated at room temperature for 40 minutes. Then, Jurkat T cells were harvested from cell culture flasks, washed twice, and re-suspended in PBS containing 2% v/v Bovine serum albumin (FACS buffer). Then, 0.5×10^5 cells per well in 96 well-plates were incubated in 100 μL of the antibody/Siglec-15-human Fc mixtures for 40 minutes at 4° C. The plates were washed twice with FACS buffer, and then added and incubated for 40 minutes at 4° C. in dark with 100 μl/well Goat Anti-human IgG (H+L) (1:200 dilution in FACS buffer, Thermofisher). Cells were washed twice and re-suspended in FACS buffer. Fluorescence was measured in a flow cytometer. Data was analyzed using Flowjo and Graphpad Prism software.

[2] = molecular target: T3, mutant version of Siglec-15 (R143A) (Homo sapiens, UniProt Q6ZMC9, R143A); assay: Flow cytometry binding to HEK293T cells expressing mutant Siglec-15 (R143A); conditions: flow cytometry (FIG. 20, FIG. 21)
T3 construct: expressed in transfected cells; host or cells: HEK293T
T3 sequence (Q6ZMC9 20-328 R143A): T2 sequence (Q6ZMC9 20-328) with R124A
Method: Assessment of the binding of anti-Siglec-15 antibodies to HEK293T cells expressing full length human Siglec-15, or mutant human Siglec-15 (R143A) or the domain 2 of human Siglec-15 by Flow cytometry: Siglec-15+, Siglec-15+R143A, and Siglec-15 Domain 2 (D2) HEK293T cells were detached using tryple and washed once with PBS, resuspended in 1× flow cytometry buffer (PBS with 1% FBS) at approximately 1-2×10^6 cells/mL. Then, anti-Siglec-15 mAbs were added to the cell suspension at the desired concentration, starting at 10 μg/mL and performing 1/3 dilutions. Cells were incubated with the indicated antibodies for 30-60 minutes at 4° C. in the dark to prevent degradation of the fluorescent signal. After the primary antibody incubation, cells were washed twice with PBS or flow cytometry buffer by centrifuging at 300-500× g for 5 minutes and the pellet resuspended in fresh buffer. The following antibody was added: anti-human IgG-PE at a 1:500 dilution. Cells were incubated with the secondary antibody for 30 minutes at 4° C. in the dark. Finally, cells were washed twice with PBS or flow cytometry buffer to remove any excess secondary antibody and acquired in a flow cytometer.

[3] = molecular target: T4, Siglec-15 on human macrophages (Homo sapiens, UniProt Q6ZMC9); assay: Flow cytometry binding to Siglec-15 positive human macrophages; conditions: compared to clone 5G12 (FIG. 3)
T4 construct: endogenous in cells; host or cells: human monocyte-derived macrophages from donor PBMCs
T4 sequence (Q6ZMC9 20-328): T2 sequence (Q6ZMC9 20-328)
Method: Post-polarization, the macrophages were harvested, washed using Flow Cytometry Staining Buffer (00-4222-26, Thermo Fisher Scientific), and subsequently incubated with fluorochrome-conjugated antibodies against Siglec-15, PD-L1, CD206, and CD163. This step was performed for 30 minutes at 4° C. in a dark environment to prevent photobleaching of the fluorochromes and to maintain the integrity of the antibodies.
Following incubation, the cells underwent a second washing step and then resuspended in 200 μL of Flow Cytometry Staining Buffer containing DAPI (1:10,000) (D1306, Invitrogen). DAPI is a nuclear stain that facilitates the identification of viable cells and enables the exclusion of dead cells or debris during analysis. The stained cells were analyzed using a FACSymphony flow cytometer (BD Biosciences). The flow cytometry data were then processed and analyzed using FlowJo software (BD Biosciences).

ka [1]: 4.46e+06 M⁻¹ s⁻¹
kd [1]: 0.000233 s⁻¹
blocking of binding of human Siglec-15 to Jurkat cells (human Siglec-15): approximately 60%
binding to HEK293T cells expressing mutated Siglec-15 (R143A) [2]: demonstrated binding
binding to Siglec-15 on human macrophages [3]: superior binding
B1: S15B1: parental mouse anti-Siglec-15 monoclonal antibody from hybridoma; VH SEQ ID NO: 18, VL SEQ ID NO: 19 (antibody, V domains shown)
VH: QVQLQQSGPELVKPGASVKISCKASGYAFSSSWMNWVKQRPGKGLEWIGRIYPGHGETNYNGKFKDKATVTADKSSSTTYMQLSSLTSEDSAVYFCARVDNSDPYYFDYWGQGTTLTVSS
VL: DIVLTQSPASLAVSLGQRATISCRASKSVSTSGYSYMHWYQQKPGQPPKLLIYLASNLESGVPARFSGSGSGTDFTLNIHPVEEEDAATYYCQHGRELPFTFGSGTKLEIK
modifications: Clone S15B1 VH; Clone S15B1 VL

Reference: patent US20250361297A1, “ANTI- SIGLEC-15 BINDING MOLECULES AND METHODS OF USE” (ADAPTAM THERAPEUTICS, S.L., priority 2024, published 2025)
